Measured values from US20240301068A1 (BEIJING HANMI PHARMACEUTICAL, published 2024).

How the values were obtained:
[1] = target: T1, recombinant human PD-L1 (Sino Biological Inc.) (human, UniProt Q9NZQ7 19-239); experiment: SPR, Biacore X100
Description: This instrument utilizes optical surface plasmon resonance technology to detect the association and dissociation between the molecules coated on the biochip and the molecules to be tested. Association constants and dissociation constants were analyzed and calculated by Biacore X100 evaluation software. […]

[2] = target: T1, recombinant human PD-L1 (Sino …); experiment: ELISA, human PD-L1 coated
Description: (§1) A 96-well high-adsorption ELISA plate was coated with 1 μg/mL of the recombinant human PD-L1 (Sino Biological Inc.) at 100 μL per well using carbonate buffer solution, pH=9.6 at 4° C. overnight. The plate was washed 5 times with PBST, and then blocked using PBST with 1% BSA, 300 μL/well, and incubated at 25° C. for 1 hour, and then washed 5 times with PBST. […] The horseradish peroxidase-labeled anti-human IgG antibody (Chemicon, catalog number AP309P) diluted 1:10000 in PBST with 1% BSA was then added, 100 μL per well, and incubated at 25° C. for 1 hour. The plate was washed 5 times with PBST. The colorimetric substrate TMB was added, 100 μL/well, and developed at room temperature for 10 minutes. 1M H₂SO₄ was added, 100 μL/well, to stop the development. The absorbance at 450 nm was read on a microplate reader.

[3] = target: recombinant rat PD-L1 (Sino Biological Inc.) (rat, UniProt D4AE25 19-239); experiment: ELISA, plate coated with 1 ug/mL recombinant rat PD-L1, anti-human IgG-HRP, OD450
Sequence of recombinant rat PD-L1 (Sino Biological Inc.) (D4AE25 entry or part of it limits assumed): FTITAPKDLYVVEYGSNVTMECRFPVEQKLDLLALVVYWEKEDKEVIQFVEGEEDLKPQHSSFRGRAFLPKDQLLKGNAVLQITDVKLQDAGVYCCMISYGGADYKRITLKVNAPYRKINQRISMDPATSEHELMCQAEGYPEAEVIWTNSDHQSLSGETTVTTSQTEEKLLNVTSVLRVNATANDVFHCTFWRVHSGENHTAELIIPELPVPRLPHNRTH
Description: (§2) A 96-well high-adsorption ELISA plate was coated with 1 μg/mL of the recombinant human PD-L1, cynomolgus PD-L1, rat PD-L1 and mouse PD-L1 (all purchased from Sino Biological Inc.), at 100 μL per well using carbonate buffer solution, pH=9.6 at 4° C. overnight. The plate was washed 5 times with PBST, and then blocked using PBST with 1% BSA, 300 μL/well, and incubated at 25° C. for 1 hour, and then washed 5 times with PBST. The chimeric anti-human PD-L1 antibody samples serially diluted in PBST with 1% BSA were added, 100 μL/well, incubated at 25° C. for 1 hour, and then washed 5 times with PBST. The horseradish peroxidase-labeled anti-human IgG antibody (Chemicon, catalog number AP309P) diluted 1:10000 in PBST with 1% BSA was then added, 100 μL per well, and incubated at 25° C. for 1 hour. The plate was washed 5 times with PBST. The colorimetric substrate TMB was added, 100 μL/well, and developed at room temperature for 10 minutes. 1M H₂SO₄ was added, 100 μL/well, to stop the development. The absorbance at 450 nm was read on a microplate reader.

[4] = target: recombinant cynomolgus PD-L1 (Sino Biological Inc.) (cynomolgus, UniProt G7PSE7 19-238); experiment: ELISA, plate coated with 1 ug/mL recombinant cynomolgus PD-L1, anti-human IgG-HRP, OD450
Sequence of recombinant cynomolgus PD-L1 (Sino Biological Inc.) (G7PSE7 entry or part of it limits assumed): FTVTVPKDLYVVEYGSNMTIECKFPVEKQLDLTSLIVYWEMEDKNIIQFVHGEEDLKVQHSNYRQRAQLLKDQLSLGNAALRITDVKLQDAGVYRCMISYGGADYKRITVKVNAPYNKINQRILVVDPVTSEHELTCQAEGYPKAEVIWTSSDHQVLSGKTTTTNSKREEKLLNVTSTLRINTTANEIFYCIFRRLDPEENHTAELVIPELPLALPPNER
Description: as §2

[5] = target: recombinant human CD28 (Sino Biological Inc.) (human, UniProt P10747 19-152); experiment: ELISA, plate coated with 1 ug/mL recombinant human CD28, anti-human IgG-HRP, OD450; antibody concentration not shown
Description: as §1, with “The” for “A 96-well high-adsorption ELISA plate was coated with 1 μg/mL of the recombinant human PD-L1 (Sino Biological Inc.) at 100 μL per well using carbonate buffer solution, pH=9.6 at 4° C. overnight. The”

[6] = target: T2, recombinant human CD86 (Sino Biological Inc.) (human, UniProt P42081 24-247, limits assumed); experiment: ELISA, plate coated with 1 ug/mL recombinant human CD86 (printed B7-2), anti-human IgG-HRP, OD450; antibody concentration not shown
T2 sequence (looked up): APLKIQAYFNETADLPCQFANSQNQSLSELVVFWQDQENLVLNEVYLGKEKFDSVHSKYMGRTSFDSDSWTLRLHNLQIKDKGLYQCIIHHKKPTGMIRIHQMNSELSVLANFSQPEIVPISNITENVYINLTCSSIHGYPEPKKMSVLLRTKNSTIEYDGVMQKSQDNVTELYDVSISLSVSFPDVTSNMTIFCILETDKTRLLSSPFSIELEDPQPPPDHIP
Description: as §1, with “The” for “A 96-well high-adsorption ELISA plate was coated with 1 μg/mL of the recombinant human PD-L1 (Sino Biological Inc.) at 100 μL per well using carbonate buffer solution, pH=9.6 at 4° C. overnight. The”

[7] = target: T3, recombinant human PD-L1-Fc protein (human, UniProt Q9NZQ7 19-238, limits assumed); experiment: blocking ELISA, plate coated with 1 ug/mL human PD-L1-Fc; blocked ligand biotin-labelled PD-1-Fc at 20 nM final, streptavidin-HRP, OD450
T3 construct: Prepared by Beijing Hanmi Pharmaceutical; The GenBank number is NP_001254635.1
T3 sequence (Q9NZQ7 19-238 limits assumed): as the sequence (G7PSE7 entry or part of it limits assumed) above, with T33A, S34A, N62S, Q68R, R82Q, L173F, A185T, I192T, L215H counted along it
Description: as §1, with “PD-L1-Fc” for “PD-L1 (Sino Biological Inc.)”, “Streptavidin-HRP (BD Pharmingen,” for “horseradish peroxidase-labeled anti-human IgG antibody (Chemicon,”, “554066)” for “AP309P)”, “1:1000” for “1:10000”

T1 sequence (Q9NZQ7 19-239 limits assumed): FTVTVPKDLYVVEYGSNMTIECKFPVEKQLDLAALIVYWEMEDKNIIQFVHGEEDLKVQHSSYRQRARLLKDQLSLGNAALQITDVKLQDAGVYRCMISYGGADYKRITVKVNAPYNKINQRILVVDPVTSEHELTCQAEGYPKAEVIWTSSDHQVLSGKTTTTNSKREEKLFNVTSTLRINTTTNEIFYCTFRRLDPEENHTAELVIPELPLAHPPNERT

B1: chimeric anti-human PD-L1 monoclonal antibody (antibody, human IgG1, kappa, V domains shown)
VH: EVQLQQSGAELVKPGASVKLSCTASGFNIEDTYIHWVMQRPEQGLEWIGRIDPANGNTKYDPKFQGKATITADTSSNTAYLQLSSLTSEDTAVYYCGRGLGAWFAYWGQGTLVTVSA
VL: DIVMTQSHKVMSTSVGDRVTITCKASQDVHTAVAWIHQKPGQSPKLLIYSASNRYTGVPDRFTGSGSGTDFTFTISSVQAEDLAVYYCQQHYITPLTFGAGTTLELKR
notes: expressed in ExpiCHO cells; also called Chimeric mAb; Chimeric antibody
For B1, the Kd [1] was 1.17 nM, the koff [1] was 0.000594 s⁻¹ and the kon [1] was 507000 M⁻¹ s⁻¹. For the same binder, the EC50 [2] was 0.066 nM, the binding result [3] was “no binding (tested: about 20 nM (last point on the log axis))” and the EC50 [4] was 0.074 nM. The binding result [5] was “no binding”, the binding result [6] was “no binding” and the IC50 [7] was 1.08 nM.
